Data from patent US20080242590A1, “New Method 706” (ASTRAZENECA AB, priority 2007, published 2008).

How the values were obtained:
amyloid β 1-40 [1] = assay: Degradation of Aβ 1-40 in human plasma pool (Example 28); format: biochemical; details: room temperature, 1 hour
Protocol: (§1) Blood from twelve individuals (6 females and 6 males) were collected into pre-chilled heparin-plasma tubes at the healthcare centre (AstraZeneca) at three different time points. Plasma was prepared by centrifugation at 2500×g for 20 min at 4° C. Plasma samples were collected and transferred to pre-chilled polypropylene tubes and immediately frozen and stored at −70° C. prior to use. Plasma was thawed and pooled from 12 individuals just before the experiment. Aβ 1-40 and 1-42 in plasma pool was degraded by human Fc-Nep or mouse Fc-Nep with corresponding vehicles (50 mM Tris-HCl, 150 mM NaCl pH 7.5). The following final concentrations of the Fc-Nep constructs were used, 100, 32, 10, 3.2, 1, 0.3, 0.1 and […] and the degradation occurred at room temperature for 1 hour while shaking on an orbital shaker. The enzymatic reaction was stopped by adding Phosphoramidone (10 μM final concentration). Concentration of amyloid β 1-40 in human plasma pool was measured using ELISA kit (Biosource; KHB3481) according to the manufacturers instructions.

[2] = Plasma exposure in APPSWE-tg mice (Example 26); format: in vivo; details: single intravenous injection of 25 mg/kg
Protocol: (§2) 21-23 weeks old female APPSWE-tg mice and 24 weeks old female C57BL/6 mice (6 mice/group) received vehicle or mFc-Nep at 5 or 25 mg/kg as a single intravenous injection and Aβ40 was analysed at different time points after injection (between 1.5-336 hours, i.e., up to 2 weeks). M-550426 was administrated per orally at 300 μmol/kg 3 hours before termination. For both mouse models, APPSWE-tg and C57BL/6, a positive control and blank groups were included. The following groups were included for the APPSWE-tg mice: 25 mg/kg: 1.5, 72, 168 and 336 hours; 5 mg/kg): 336 hours (2 weeks). For C57BL/6 mice: 25 mg/kg: 168 and 336 hours; 5 mg/kg): 1.5, 168 and 336 hours. […] Blood collection and plasma processing were basically as described in Example 25 The analysis of mouse Aβ40 levels in plasma of C57BL6 mice was as described in Example 25 The analysis of human Aβ40 and Aβ42 levels in plasma of APPSWE-tg mice was as described in Example 25 (as described in the last APP-tg study).

[3] = Plasma exposure in C57BL/6 mice (Example 26); format: in vivo; details: 25 mg/kg single injection
Protocol: as §2

[4] = Observations of animal health (Example 26); format: in vivo, APPSWE-tg mice and C57BL/6 mice; details: 5 or 25 mg/kg single i.v., up to 336 hours
Protocol: as §2

Aβ 1-42 [5] = assay: Degradation of Aβ 1-42 in APPswe-tg mouse plasma pool (Example 28); format: biochemical; details: room temperature, 1 hour
Protocol: Mouse plasma collected from 9 animals was stored at −70° C. Plasma was thawed and pooled just before the experiment. Aβ 1-40 and 1-42 in plasma pool was degraded by human Fc-Nep or mouse Fc-Nep with corresponding vehicles (50 mM Tris-HCl, 150 mM NaCl pH 7.5). The following final concentrations of the Fc-Nep constructs were used, 100, 32, 10, 3.2, 1, 0.3, 0.1 and […] and the degradation occurred at room temperature for 1 hour while shaking on an orbital shaker. The enzymatic reaction was stopped by adding Phosphoramidone (10 μM final concentration).
After degradation, a final concentration of 4.7 mM EDTA was added to the tg-mouse plasma tubes and the plasma samples were diluted 3 times in sample diluent, before the concentration of Aβ42 was analyzed using ELISA kit Innotest® β-Amyloid1-42 (Innogenetics, lot#177462, ref#80177) according to the manufacturers instructions. The highest concentration (100 μg/ml) of human Fc-Nep and mouse Fc-Nep degraded human plasma amyloid β 1-40 by 71% and 77%, respectively and Aβ 1-42 by 34% and 53%, respectively, as compared to plasma without Fc-Nep treatment.

human Aβ42 = assay: Human Aβ42 in plasma, time-response after single i.v. dose (Example 26); format: in vivo, APPSWE-tg mice; details: 25 mg/kg single i.v.
human Aβ40 = assay: Human Aβ40 in plasma, time-response after single i.v. dose (Example 26); format: in vivo, APPSWE-tg mice; details: 25 mg/kg single i.v.
From the text: (§3) The objective of this study was to evaluate the time-response relationship of the mouse version of the Fc-Nep (mFc-Nep, SEQ ID NO 14) in plasma of female APPSWE-tg mice and C57BL/6 mice after a single dose. The specific purpose is to find out how long the reducing effect of mFc-Nep on Aβ stays in the plasma, and to correlate the effect to the level of exposure of test compound in plasma. The γ-secretase inhibitor M-550426 is included as a positive compound.
(§4) 21-23 weeks old female APPSWE-tg mice and 24 weeks old female C57BL/6 mice (6 mice/group) received vehicle or mFc-Nep at 5 or 25 mg/kg as a single intravenous injection and Aβ40 was analysed at different time points after injection (between 1.5-336 hours, i.e., up to 2 weeks). M-550426 was administrated per orally at 300 μmol/kg 3 hours before termination. For both mouse models, APPSWE-tg and C57BL/6, a positive control and blank groups were included. The following groups were included for the APPSWE-tg mice: 25 mg/kg: 1.5, 72, 168 and 336 hours; 5 mg/kg): 336 hours (2 weeks). For C57BL/6 mice: 25 mg/kg: 168 and 336 hours; 5 mg/kg): 1.5, 168 and 336 hours. […]

mouse Aβ40 = assay: Mouse Aβ40 in plasma, time-response after single i.v. dose (Example 26); format: in vivo, C57BL/6 mice; details: 25 mg/kg single injection, 2 weeks (336 hours)
From the text: as §3, §4

amyloid β 1-40 [6] = assay: Degradation of Aβ 1-40 in APPswe-tg mouse plasma pool (Example 28); format: biochemical; details: room temperature, 1 hour
Protocol: Mouse plasma collected from 9 animals was stored at −70° C. Plasma was thawed and pooled just before the experiment. Aβ 1-40 and 1-42 in plasma pool was degraded by human Fc-Nep or mouse Fc-Nep with corresponding vehicles (50 mM Tris-HCl, 150 mM NaCl pH 7.5). […] The enzymatic reaction was stopped by adding Phosphoramidone (10 μM final concentration).
After degradation, before concentration of amyloid β 1-40 in tg-mouse plasma pool was measured using ELISA kit (Biosource; KHB3481), the plasma samples were diluted 20 times in standard diluent buffer, according to manufacturers instructions.

Aβ 1-42 [7] = assay: Degradation of Aβ 1-42 in human plasma pool (Example 28); format: biochemical; details: room temperature, 1 hour
Protocol: as §1
A final concentration of 4.7 mM EDTA was added to the tubes before the concentration of Aβ42 was analyzed using ELISA kit Innotest® β-Amyloid1-42 (Innogenetics, lot#177462, ref#80177) according to the manufacturers instructions.

[8] = highest concentration 100 μg/ml

B1: mFc-Nep: mouse version of the Fc-Nep, SEQ ID NO 14 (protein, listed as Mus musculus)
chain: METDTLLLWVLLLWVPGSTGDVPRDCGCKPCICTVPPVSSVFIFPPKPKDVLTITLTPKVTCVVVAISKDDPEVQFSWFVDDVEVHTAQTQPREEQFASTFRSVSELPIMHQDWLNGKEFKCRVNSAAFPAPIEKTISKTKGRPKAPQVYTIPPPKEQMAKDKVSLTCMITDFFPEDITVEWQWNGQPAENYKNTQPIMNTNGSYFVYSKLNVQKSNWEAGNTFTCSVLHEGLHNHHTEKSLSHSPGKYDDGICKSSDCIKSAARLIQNMDASVEPCTDFFKYACGGWLKRNVIPETSSRYSNFDILRDELEVILKDVLQEPKTEDIVAVQKAKTLYRSCINESAIDSRGGQPLLKLLPDIYGWPVASDNWDQTYGTSWTAEKSIAQLNSKYGKKVLINFFVGTDDKNSTQHIIHFDQPRLGLPSRDYYECTGIYKEACTAYVDFMISVARLIRQEQSLPIDENQLSLEMNKVMELEKEIANATTKPEDRNDPMLLYNKMTLAKLQNNFSLEVNGKSFSWSNFTNEIMSTVNINIQNEEEVVVYAPEYLTKLKPILTKYSPRDLQNLMSWRFIMDLVSSLSRNYKESRNAFRKALYGTTSETATWRRCANYVNGNMENAVGRLYVEAAFAGESKHVVEDLIAQIREVFIQTLDDLTWMDAETKKKAEEKALAIKERIGYPDDIISNENKLNNEYLELNYREDEYFENIIQNLKFSQSKQLKKLREKVDKDEWISGAAVVNAFYSSGRNQIVFPAGILQPPFFSAQQSNSLNYGGIGMVIGHEITHGFDDNGRNFNKDGDLVDWWTQQSANNFKDQSQCMVYQYGNFSWDLAGGQHLNGINTLGENIADNGGIGQAYRAYQNYVKKNGEEKLLPGLDLNHKQLFFLNFAQVWCGTYRPEYAVNSIKTDVHSPGNFRIIGTLQNSAEFADAFHCRKNSYMNPERKCRVW
Degradation of amyloid β 1-40 compared to plasma without treatment (amyloid β 1-40 [1]; [8]): 71%
EC50 (amyloid β 1-40 [1]): 400 nM
Plasma exposure ([2]; 1.5 hours): 299 µg/mL
Plasma exposure ([2]; 336 hours): 60 µg/mL
plasma half-life [3]: long
Plasma exposure ([3]; 336 hours): 48 µg/mL
Observations of the animal health [4]: no overt adverse effects
Degradation of Aβ 1-42 compared to plasma without treatment (Aβ 1-42 [5]; [8]): 53%
EC50 (Aβ 1-42 [5]): 820 nM
Aβ42 levels compared to vehicle (human Aβ42; 1.5 hours): 87%
Aβ42 levels compared to vehicle (human Aβ42; two weeks (336 hours)): 44%
Aβ40 levels compared to vehicle (human Aβ40; 1.5 hours): 91%
Aβ40 levels compared to vehicle (human Aβ40; two weeks (336 hours)): 58%
Reduction of mouse Aβ40 levels in plasma compared to vehicle (mouse Aβ40): 73%
Degradation of amyloid β 1-40 compared to plasma without treatment (amyloid β 1-40 [6]; [8]): 77%
EC50 (amyloid β 1-40 [6]): 340 nM
Degradation of Aβ 1-42 compared to plasma without treatment (Aβ 1-42 [7]; [8]): 19%
EC50 (Aβ 1-42 [7]): 180 nM
